Results published in paper PMC9860181 (Plant Communications, 2022).
Where two headings read alike, the source gives them in different places.

Tests used:
[1] = biological target: the molecule itself; test: SDS-PAGE of dimer and monomer
[2] = biological target: T1, UVR8^W285A (residues 12–421) (A. thaliana, UniProt Q9FN03 12-421, W285A); test: crystal structure
T1 sequence: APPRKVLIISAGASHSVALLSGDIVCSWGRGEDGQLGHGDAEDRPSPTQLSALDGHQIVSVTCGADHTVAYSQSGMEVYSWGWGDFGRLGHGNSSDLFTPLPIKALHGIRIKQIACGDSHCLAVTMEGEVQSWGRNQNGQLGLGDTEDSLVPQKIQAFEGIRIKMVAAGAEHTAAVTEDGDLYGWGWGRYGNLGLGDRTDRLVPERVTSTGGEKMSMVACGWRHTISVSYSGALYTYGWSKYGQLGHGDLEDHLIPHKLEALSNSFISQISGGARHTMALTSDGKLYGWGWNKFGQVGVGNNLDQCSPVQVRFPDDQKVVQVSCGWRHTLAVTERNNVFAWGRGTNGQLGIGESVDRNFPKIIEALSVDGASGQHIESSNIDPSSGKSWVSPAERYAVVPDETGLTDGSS

UVR8^W285A-Strep II [3] = biological target: T2, UVR8^W285A-Strep II (A. thaliana, UniProt Q9FN03 1-440, W285A); test: pull-down
T2 sequence: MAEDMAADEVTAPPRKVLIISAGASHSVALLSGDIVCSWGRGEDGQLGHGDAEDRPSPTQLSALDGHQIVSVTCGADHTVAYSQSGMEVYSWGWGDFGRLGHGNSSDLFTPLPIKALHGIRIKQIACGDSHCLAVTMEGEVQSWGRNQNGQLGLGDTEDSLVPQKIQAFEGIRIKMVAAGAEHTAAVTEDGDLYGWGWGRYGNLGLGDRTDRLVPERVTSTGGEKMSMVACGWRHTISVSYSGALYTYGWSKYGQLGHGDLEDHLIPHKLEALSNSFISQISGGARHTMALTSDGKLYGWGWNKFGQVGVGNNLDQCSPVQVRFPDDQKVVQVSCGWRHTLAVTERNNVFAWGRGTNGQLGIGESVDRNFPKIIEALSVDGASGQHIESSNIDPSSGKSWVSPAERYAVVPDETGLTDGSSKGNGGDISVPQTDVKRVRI

UVR8^W285A-Strep II [4] = biological target: T2, UVR8^W285A-Strep II; test: pull-down; remark: listed apart in the source

B1: UVR8^N396 (residues 1–396) (domain or fragment)
chain: MAEDMAADEVTAPPRKVLIISAGASHSVALLSGDIVCSWGRGEDGQLGHGDAEDRPSPTQLSALDGHQIVSVTCGADHTVAYSQSGMEVYSWGWGDFGRLGHGNSSDLFTPLPIKALHGIRIKQIACGDSHCLAVTMEGEVQSWGRNQNGQLGLGDTEDSLVPQKIQAFEGIRIKMVAAGAEHTAAVTEDGDLYGWGWGRYGNLGLGDRTDRLVPERVTSTGGEKMSMVACGWRHTISVSYSGALYTYGWSKYGQLGHGDLEDHLIPHKLEALSNSFISQISGGWRHTMALTSDGKLYGWGWNKFGQVGVGNNLDQCSPVQVRFPDDQKVVQVSCGWRHTLAVTERNNVFAWGRGTNGQLGIGESVDRNFPKIIEALSVDGASGQHIESSNIDPSS
B1: binds [1].

B2: RUP2 (residues 21–366) (domain or fragment)
chain: RYEWDLSLSTVVSSSSSSASDVIGAIEFDPTDNIVATAGISRKIRFYGLPSLLRNNAVSGTGVSFVDQATACEYYICTPAKLSSLRWRPGSGGRVIGSGDYDGVVMEYDLEKRTPVFERDEHGGRRVWSVDYTRHGGASTVGASGSDDGTMQVWDPRCPPEESVGVVRPAGICRSAVCCVEFDPSGGPAVAVGCADRKGYVYDIRKLVDPALTLQGHTKTVSYVRFLDGGTVVTAGTDGCLKLWSVEDGRVIRTYEGHVNNRNFVGLSVWRNGALFGCGSENNRVFVYDRRWGKPVWVDGFEPVGMNSGSDKRFVSSVCWRQSGVDQCTLVAGGSDGVLQVYVGKR
B2: binds [2].

B3: REPRESSOR OF UV-B PHOTOMORPHOGENESIS 2 (RUP2), C-terminal 3×Flag (natural protein)
chain: MNTLHPHKQQQEQAQQQEEARYEWDLSLSTVVSSSSSSASDVIGAIEFDPTDNIVATAGISRKIRFYGLPSLLRNNAVSGTGVSFVDQATACEYYICTPAKLSSLRWRPGSGGRVIGSGDYDGVVMEYDLEKRTPVFERDEHGGRRVWSVDYTRHGGASTVGASGSDDGTMQVWDPRCPPEESVGVVRPAGICRSAVCCVEFDPSGGPAVAVGCADRKGYVYDIRKLVDPALTLQGHTKTVSYVRFLDGGTVVTAGTDGCLKLWSVEDGRVIRTYEGHVNNRNFVGLSVWRNGALFGCGSENNRVFVYDRRWGKPVWVDGFEPVGMNSGSDKRFVSSVCWRQSGVDQCTLVAGGSDGVLQVYVGKRKP
B3: binds (UVR8^W285A-Strep II [3]).

B4: REPRESSOR OF UV-B PHOTOMORPHOGENESIS 1 (RUP1), C-terminal 3×Flag (natural protein)
chain: MEALFCSEIPNNNIRSSINDLSSSSSYTWPMIMTSSSSSSSSPTIMNIENIPRCDWDLSLSAVVSSASTGSDAIGAIEFDPTGEIIATGGIARKIRSYRLSSLLESRDDHVTASESYICTPAKLSSLKWRPDFSGRVIGSGDYDGVVTEYDVEKQVPVSERDEHGGRRIWSVDYTLYNGSLIGASGSDDGTVQMWDPRNGGTLEETVRPGGGAAICSVEFDPFGGSSIAVGCADRNAYVYDIRRLVDPLIVLDGHTKTVTYARFMDSHTIVTGSTDGSLKQWDIDNGRRVVRTYRGHVNSRNFVGLSVWRHGGLVVSGSENNQVFVYDKRWEEPVWVCGLGHTNRFGSDRRFVSSVCLRQVDEDWCTLVAGGSDGALEIFSGKQS
B4: binds (UVR8^W285A-Strep II [4]).
